Reference: US20240301062A1 (BEIGENE SWITZERLAND, published 2024)
Residue numbers refer to the chain shown, from its start. Names may count otherwise. “And” between values parts separate entries of the source, which are not always exact repeats. Equal values may be shown once.

T1: human claudin 6 (CLDN6) (human, UniProt P56747 1-220)
T1 construct: also called human CLDN6; hCLDN6
T1 sequence: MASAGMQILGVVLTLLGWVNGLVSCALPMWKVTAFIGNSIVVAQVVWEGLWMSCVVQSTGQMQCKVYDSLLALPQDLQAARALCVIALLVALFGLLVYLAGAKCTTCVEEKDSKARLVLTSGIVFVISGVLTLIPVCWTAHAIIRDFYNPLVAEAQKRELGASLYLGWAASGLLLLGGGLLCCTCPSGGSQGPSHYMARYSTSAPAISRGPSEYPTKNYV

T2: mouse CLDN6 (mouse, UniProt Q9Z262 1-219)
T2 construct: whole, on cells
T2 sequence (looked up): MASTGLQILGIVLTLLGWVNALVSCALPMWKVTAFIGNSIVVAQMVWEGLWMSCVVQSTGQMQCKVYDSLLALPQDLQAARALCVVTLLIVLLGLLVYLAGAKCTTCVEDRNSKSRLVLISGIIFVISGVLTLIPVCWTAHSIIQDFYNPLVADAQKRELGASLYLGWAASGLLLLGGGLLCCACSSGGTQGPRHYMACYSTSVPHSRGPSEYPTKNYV

B1: chimeric sp34 (ch-sp34) (antibody, V domains shown)
VH: EVQLVESGGGLVQPKGSLKLSCAASGFTFNTYAMNWVRQAPGKGLEWVARIRSKYNNYATYYADSVKDRFTISRDDSQSILYLQMNNLKTEDTAMYYCVRHGNFGNSYVSWFAYWGQGTLVTVSS
VL: QAVVTQESALTTSPGETVTLTCRSSTGAVTTSNYANWVQEKPDHLFTGLIGGTNKRAPGVPARFSGSLIGDKAALTITGAQTEDEAIYFCALWYSNLWVFGGGTKLTVL
B2: BG87P-21 (antibody, V domains shown)
VH: QVQLVQSGAEVKKPGASVKVSCKASGYSFTDYHINWVRQAPGQRLEWMGWIYPGSGYTKYNEKFKGRVTITRDTSASTAYMELSSLRSEDTAVYYCARSGIYHYVSSYYFDHWGKGTTVTVSS
VL: DIQMTQSPSTLSASVGDRVTITCKASQDVGTAVAWYQQKPGKAPKLLIYWASTRHTGVPSRFSGSGSGTEFTLTISSLQPDDFATYYCQQYSSYTFGGGTKVEIK
B3: BG87P-31 (antibody, V domains shown)
VH: B2 VH with V5Q, V11T, P41S, W50Y, Y57H, Y60K
VL: B2 VL with V29A, T31S, Y49K
notes: Solubility engineering variant of BG87P-21
B4: BG87P-32 (antibody, V domains shown)
VH: B2 VH with V5Q, V11T, P41S, W50Y, Y57H, Y60K
VL: B2 VL with V29A, T31S
notes: as for B3
B5: BG87P-33 (antibody, V domains shown)
VH: EVQLQESGGGLVQPGGSLRLSCAASGYSFTDYHINWVRQAPGKGLEWVSYIYPGSGHTKYNEKFKGRFTISRDTSKNTAYLQMNSLRAEDTAVYYCARSGIYHYVSSYYFDHWGQGTLVTVSS
VL: B2 VL with V29A, T31S
notes: Framework-swapped variant; also called BG87-33
B6: BG87P-m4 (antibody, V domains shown)
VH: QIQLQQSGPELVKPGASVKISCKASGYSFTDYAINWVKQRPGQGLEWIGWIYPGSGYTKYNEKFKVKATLTVDTSSSTAYMHLTSLTSEDSAVYFCARSGIYHYVSSYYFDHWGQGTTLTVSS
VL: DIVMTQSHTFMSTSVGDRVSITCKASQDVGTAVAWYQQKPGQSPKLLIYWASTRHTGVPDRFTGSGSGTDFTLTISNVQSEDLADYFCQQYSSYTFGGGTKLEIK
notes: Variant of chBG87P with H33A; constant regions not restated (parent: human IgG1/kappa)
B7: BG87P-22 (antibody, V domains shown)
VH: B2 VH with Y95F
VL: B2 VL
B8: BG87P-25 (antibody, V domains shown)
VH: B2 VH with V2I, I70L
VL: B2 VL
B9: BG87P-26 (antibody, V domains shown)
VH: B2 VH with V2I, Y95F
VL: B2 VL
B10: BG87P-27 (antibody, V domains shown)
VH: B2 VH with I70L, Y95F
VL: B2 VL
B11: BG87P-24 (antibody, V domains shown)
VH: B2 VH with I70L
VL: B2 VL
B12: BG87P-23 (antibody, V domains shown)
VH: B2 VH with V2I
VL: B2 VL
B13: BG87P-z0 (antibody, V domains shown)
VH: B2 VH with S28T, G66V
VL: B2 VL

Target: T3, human native CD3 on live cells (HuT78, Jurkat) (human, UniProt P07766 23-207; P09693 23-182; P04234 22-171)
T3 construct: whole, on cells; also called human CD3
T3 sequence (P07766 23-207, chain 1 of 3): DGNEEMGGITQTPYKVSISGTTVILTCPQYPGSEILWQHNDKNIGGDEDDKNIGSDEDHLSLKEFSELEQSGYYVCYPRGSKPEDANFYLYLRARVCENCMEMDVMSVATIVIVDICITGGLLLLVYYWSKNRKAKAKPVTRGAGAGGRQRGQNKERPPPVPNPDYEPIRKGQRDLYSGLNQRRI
T3 sequence (P09693 23-182, chain 2 of 3): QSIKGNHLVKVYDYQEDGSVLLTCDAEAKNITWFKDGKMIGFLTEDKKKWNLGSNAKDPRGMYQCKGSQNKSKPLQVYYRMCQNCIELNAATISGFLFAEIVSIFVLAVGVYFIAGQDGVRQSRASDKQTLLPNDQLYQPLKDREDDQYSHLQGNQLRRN
T3 sequence (P04234 22-171, chain 3 of 3): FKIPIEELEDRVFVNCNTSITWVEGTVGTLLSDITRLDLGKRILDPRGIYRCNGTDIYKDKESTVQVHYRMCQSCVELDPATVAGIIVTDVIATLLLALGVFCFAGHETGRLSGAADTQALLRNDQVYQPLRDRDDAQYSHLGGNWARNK
Test: FACS, HuT78 cells
Procedure: (§1) For affinity determination, antibodies were captured by anti-human Fc surface, and used in the affinity-assay based on surface plasmon resonance (SPR) technology. The binding activity of humanized sp34 to bind native CD3 on live cells was evaluated using HuT78 cells in a FACS based assay. Live HuT78 cells were seeded in 96-well plate, and were incubated with a series of dilutions of chimeric or humanized sp34. Mouse anti-Human IgG was used as second antibody to detect antibody binding to the cell surface. EC50 values for dose-dependent binding to human native CD3 were determined by fitting the dose-response data to the four-parameter logistic model with GraphPad Prism.

| Binder | EC50 [nM] |
| --- | --- |
| B1 | 1.9 |

Target: T3, human native CD3 on live cells (HuT78, …)
Test: FACS, HuT78 cells
Remark: another data set of the same source
Procedure: as §1

| Binder | EC50 [nM] |
| --- | --- |
| B1 | 2.49 |

Target: T1, human claudin 6 (CLDN6)
Test: FACS, HEK293-hCLDN6 cells

| Binder | FACS-Ec50 ratio to BG87P [ratio] |
| --- | --- |
| B2 | 0.91 |
| B3 | 1.6 |
| B4 | 1.31 |
| B5 | 2.45 |

Target: T1, human claudin 6 (CLDN6)
Test: FACS, HEK293T-hCLDN6 cells

| Binder | FACS Emax ratio to BG87P [ratio] |
| --- | --- |
| B2 | 0.66 |
| B3 | 0.76 |
| B4 | 0.63 |
| B5 | 0.91 |

Target: T4, cyno CLDN6 (cyno)
T4 construct: whole, on cells; also called cynomolgus CLDN6
Test: FACS, HEK293T-cyno-CLDN6 cells

| Binder | FACS Emax ratio to BG87P [ratio] |
| --- | --- |
| B2 | 0.8 |
| B5 | 0.75 |

Target: T4, cyno CLDN6
Test: FACS, HEK293T_cyno-CLDN6 cells

| Binder | EC50 [nM] |
| --- | --- |
| B2 | 8.9 |
| B5 | 25.8 |

Target: T1, human claudin 6 (CLDN6)
Test: FACS, HEK293T/human CLDN6 cells
Procedure: (§2) For affinity determination, CLDN6 over-expressing HEK293T cells and cancer cell line PA-1 which express high levels of human CLDN6 were used to evaluate the binding activity of BG87P related engineering variants. Live cells were seeded in 96-well plate, and were incubated with a series of dilutions of chBG87P and engineered variants thereof. Goat anti-human IgG was used as second antibody to detect antibody binding to the cell surface. EC50 values for dose-dependent binding to CLDN6 expressing cell lines were determined by fitting the dose-response data to the four-parameter logistic model with GraphPad Prism. Cell binding activity of 1st round of BG87P humanization variants against HEK293T/human CLDN6 were compared to chBG87P and shown in FIG. 1A.
Beginning with the chBG87P antibody and BG87P-Bz0, several additional amino acid changes in the CDR regions of both VH and VL were made to further improve the biophysical properties for therapeutics use in human. The considerations included removing post translational modifications (PTM), improved heat stability (Tm), while maintaining binding activities, the resulted variants are BG87P-m1 (VH SEQ ID NO: 31 and VL SEQ ID NO: 8), BG87P-m2 (VH SEQ ID NO: 32 and VL SEQ ID NO: 8), BG87P-m3 (VH SEQ ID NO: 33 and VL SEQ ID NO: 8), and BG87P-m4 (VH SEQ ID NO: 34 and VL SEQ ID NO: 8) and BG87P-m5 (VH SEQ ID NO: 35 and VL SEQ ID NO: 14), BG87P-m6 (VH SEQ ID NO: 36 and VL SEQ ID NO 14), BG87P-m7 (VH SEQ ID NO: 37 and VL SEQ ID NO: 14), and BG87P-m8 (VH SEQ ID NO: 38 and VL SEQ ID NO: 14). Cell binding activity of chBG87P and BG87P-Bz0 related PTM removal variants against HEK293T/human CLDN6 was compared with chBG87P and BG87-Bz0, respectively ([…]). Cell binding affinity (EC50) and Emax (MFI) was normalized to chBG87P for directly comparison and ranking (Table 7).

| Binder | EC50 [nM] | Emax ratio to BG87P [ratio] | Top MFI Mean [MFI] |
| --- | --- | --- | --- |
| B6 | 11.8 | 0.74 | 143000 |
| B2 | 3.07 | 0.78 | 149000 |
| B7 | 2.12 | 0.71 | 137000 |
| B8 | 2.33 | 0.74 | 143000 |
| B9 | 2.3 | 0.77 | 148000 |
| B10 | 2 | 0.68 | 131000 |
| B11 | 2.16 | 0.73 | 141000 |
| B12 | 2.43 | 0.77 | 148000 |
| B13 | 2.45 | 0.5 | 95600 |

Target: T1, human claudin 6 (CLDN6)
Test: FACS, PA-1 cells (endogenous CLDN6)
Procedure: as §2

| Binder | EC50 | Emax ratio to BG87P [ratio] | Top MFI Mean [MFI] |
| --- | --- | --- | --- |
| B2 | 2.8 nM and 2.62 nM | 0.61 | – |
| B7 | 3.01 nM and 3 nM | 0.54 | – |
| B8 | 2.34 nM | 0.59 | 73700 |
| B9 | 2.3 nM and 2.52 nM | 0.54 | 68000 |
| B10 | 1.68 nM | 0.53 | 66700 |
| B11 | 2.27 nM | 0.5 | 62400 |
| B12 | 2.49 nM | 0.58 | 72500 |
| B13 | 3.25 nM | 0.43 | 53200 |

Target: T5, CD3ε (SPR analyte) (UniProt P07766 23-126, limits assumed)
T5 sequence (P07766 23-126 limits assumed): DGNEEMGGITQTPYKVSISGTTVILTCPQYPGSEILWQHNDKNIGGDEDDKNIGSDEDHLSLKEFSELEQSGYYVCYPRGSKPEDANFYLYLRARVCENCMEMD
Test: SPR, antibody captured by anti-human Fc
Procedure: as §1

| Binder | Kd [nM] | koff [s⁻¹] | kon [M⁻¹ s⁻¹] |
| --- | --- | --- | --- |
| B1 | 2.3 | 0.000496 | 216000 |

Target: T5, CD3ε (SPR analyte)
Test: SPR, antibody captured by anti-human Fc
Remark: another data set of the same source
Procedure: as §1

| Binder | Kd [nM] | koff [s⁻¹] | kon [M⁻¹ s⁻¹] |
| --- | --- | --- | --- |
| B1 | 2.3 | 0.000496 | 216000 |

Target: T4, cyno CLDN6
Test: flow cytometry on CHOK1/cyno CLDN6 cells, MFI(PE)

| Binder | EC50 (read off the curve) [nM] |
| --- | --- |
| B2 | ~9 |

Target: T2, mouse CLDN6
Test: flow cytometry on CHOK1/mouse CLDN6 cells, MFI(PE)

| Binder | binding result |
| --- | --- |
| B2 | binds |
| B5 | binds |

Target: T3, human native CD3 on live cells (HuT78, …)
Test: flow cytometry on live HuT78 cells, mouse anti-human IgG secondary, MFI
Procedure: as §1

| Binder | EC50 (read off the curve) [µg/mL] |
| --- | --- |
| B1 | ~0.3 |

Target: T3, human native CD3 on live cells (HuT78, …)
Test: as above
Remark: another data set of the same source
Procedure: as §1

| Binder | EC50 (read off the curve) [µg/mL] |
| --- | --- |
| B1 | ~0.4 |

Target: T1, human claudin 6 (CLDN6)
Test: flow cytometry on HEK293T/human CLDN6 cells, goat anti-human IgG secondary, MFI(PE)
Procedure: as §2

| Binder | EC50 (read off the curve) [nM] |
| --- | --- |
| B2 | ~10 |
